Source: patent US20180030119A1 (published 2018)

What was measured:
[1] = target: F protein of clinical RSV isolate #1, on virus; assay: cell-based or functional assay
[2] = target: T1, RSV F protein as coated in the ELISA of Example 3 (RSV-EIA antigen by the legend of FIG. 6) (RSV, strain ); assay: ELISA, serial dilutions of purified AR201 on coated antigen, anti-human IgG-HRP, four parameter fit
T1 construct: also called total RSV antigen (EIA-antigen)

B1: AR201 (antibody, V domains shown)
VH: LVQLRESGPGLVKPSQTLSLTCSVSGASINLYDYFWGWIRQAPGRGPEWIGYISGSTYYNPSLKRRATISVDTSKSQFFLELTSVTAADTAVYYCARDVGWGPQYYYGLDVWGQGTTVTVSS
VL: DLVLTQSPGTLSLSPGERATLSCRASHSVQSTSLAWYQQKRGQAPRLLIYGGSSRVTGIPDRFSGSGSGTDFTLTISRLEPEDFAVYYCQQSDRSPPITFGQGTRLEMK
notes: Fully human IgG1, kappa; 1 and 3 are used here; also called KBRV201
Q: How did the “IC50 of neutralisation, infectivity assay on Hep2 cells” value [1] turn out when B1 was run?
A: 1700 nM

Q: And the EC50 [2]?
A: 0.103 nM
